Source: publication doi:10.1101/2020.10.06.327742 (bioRxiv, 2020)
The star is where a group is joined. FITC = O=C1OC2(c3ccc(O)cc3Oc3cc(O)ccc32)c2ccc(NC(=S)*)cc21

What was measured:
Experiment in all cases: fluorescence polarisation
[1] = molecular target: FITC-labelled C-terminal peptide of ACE2 (FITC-…-COO-) (human)
[2] = molecular target: FITC-labelled ACE2 peptide with the predicted PTB binding motif (FITC-…-NH2) (human)
[3] = molecular target: AP2 μ2 (human unless Table 5 states otherwise (cells not shown))
[4] = molecular target: T1, SHANK1 PDZ (human unless Table 5 states otherwise …, UniProt Q9Y566 663-757)
T1 sequence: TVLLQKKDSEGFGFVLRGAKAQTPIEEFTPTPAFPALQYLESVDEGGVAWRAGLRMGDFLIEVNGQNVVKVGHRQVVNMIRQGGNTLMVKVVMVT

Question: NHERF3 PDZ1 (domain or fragment) was tested. Which Kd [1] did it give?
Answer: 8 µM

Question: With SNX17 FERM domain (domain or fragment) as the molecule, how does the Kd [2] read?
Answer: 200 to 300 µM

Question: How did the Ki [3] turn out when “unphosphorylated ACE2 peptide (cytoplasmic tail region with the predicted AP2 μ2, NCK SH2 and ATG8 binding motifs)” was run?
Answer: 101 µM

Question: Which Kd [4] does the source give for {FITC}-QNTDDVQTSF-OH [FITC-labelled C-terminal peptide of ACE2 (FITC-QNTDDVQTSF-COO-)] here?
Answer: 14 µM
